T1: C4.4a on A549 cells transfected with the sequence for the complete C4.4a receptor (Homo sapiens)
T1 chain: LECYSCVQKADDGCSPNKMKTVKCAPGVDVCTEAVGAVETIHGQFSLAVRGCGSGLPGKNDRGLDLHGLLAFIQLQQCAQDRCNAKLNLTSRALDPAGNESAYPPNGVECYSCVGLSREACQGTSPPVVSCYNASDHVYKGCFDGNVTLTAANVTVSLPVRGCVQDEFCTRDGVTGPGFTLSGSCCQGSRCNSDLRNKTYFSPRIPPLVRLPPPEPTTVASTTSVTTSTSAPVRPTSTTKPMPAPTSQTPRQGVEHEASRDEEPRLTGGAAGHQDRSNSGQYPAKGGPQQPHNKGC

B1: ADC of Example 55 (antibody, V domains shown)
VH: EVQLLESGGGLVQPGGSLRLSCAASGFTFSDYQMTWIRQTPGKGLEWVSGISWNGGSTHYADSVKGRFTISRDNSKNTLYLQMNSLRAEDTAVYYCAKGDYLVYSSYYFKSWGQGTLVTVSS
VL: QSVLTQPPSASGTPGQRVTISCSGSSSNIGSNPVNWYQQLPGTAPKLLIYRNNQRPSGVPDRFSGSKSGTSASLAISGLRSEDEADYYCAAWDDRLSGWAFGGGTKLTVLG
modifications: toxophore-linker on Cys (via S); toxophore-linker on Cys (via S)
B2: ADC of Example 49 (antibody, V domains shown)
VH: EVQLLESGGGLVQPGGSLRLSCAASGFTFSSAWMSWVRQAPGKGLEWVSYISSSGSTIYYADSVKGRFTISRDNSKNTLYLQMNSLRAEDTAVYYCAREGLWAFDYWGQGTLVTVSS
VL: QSVLTQPPSVSGAPGQRVTISCTGSSSNIGAGYVVHWYQQLPGTAPKLLIYDNNKRPSGVPDRFSGSKSGTSASLAISGLRSEDEADYYCAAYDDSLSGPVFGGGTKLTVLG
modifications: toxophore-linker on Cys (via S); toxophore-linker on Cys (via S)
B3: ADC of Example 53 (antibody, V domains shown)
VH: EVQLLESGGGLVQPGGSLRLSCAASGFTFSSAWMSWVRQAPGKGLEWVSYISSSGSTIYYADSVKGRFTISRDNSKNTLYLQMNSLRAEDTAVYYCAREGLWAFDYWGQGTLVTVSS
VL: QSVLTQPPSVSGAPGQRVTISCTGSSSNIGAGYVVHWYQQLPGTAPKLLIYDNNKRPSGVPDRFSGSKSGTSASLAISGLRSEDEADYYCAAYDDSLSGPVFGGGTKLTVLG
modifications: toxophore-linker on Cys (via S); toxophore-linker on Cys (via S)
B4: ADC of Example 52 (antibody, V domains shown)
VH: EVQLLESGGGLVQPGGSLRLSCAASGFTFSSAWMSWVRQAPGKGLEWVSYISSSGSTIYYADSVKGRFTISRDNSKNTLYLQMNSLRAEDTAVYYCAREGLWAFDYWGQGTLVTVSS
VL: QSVLTQPPSVSGAPGQRVTISCTGSSSNIGAGYVVHWYQQLPGTAPKLLIYDNNKRPSGVPDRFSGSKSGTSASLAISGLRSEDEADYYCAAYDDSLSGPVFGGGTKLTVLG
modifications: toxophore-linker on Cys (via S); toxophore-linker on Cys (via S)

Biological target: T1, C4.4a on A549 cells transfected with …
Assay: cell-based or functional assay
With B1 the “IC50 [nM] A549: C4.4a (cell viability)” value was 0.053 nM. B2 was tested, and the “IC50 [nM] A549: C4.4a (cell viability)” value was 0.076 nM. For B3, the “IC50 [nM] A549: C4.4a (cell viability)” value was 0.046 nM. In the case of B4, the “IC50 [nM] A549: C4.4a (cell viability)” value is reported as 0.04 nM.

— patent publication US8992932B2 (Seattle Genetics, Inc., dated 2015)
